# Measured values taken from patent publication US20100120665A1.
# Experiments:
# Test in all cases: cell-based or functional assay
# [1] = molecular target: human complement factor D (human) (UniProt P00746)
# [2] = molecular target: mouse factor B (endogenous, in diluted whole mouse serum) (mouse) (UniProt P04186)
# [3] = molecular target: purified human factor B protein (Quidel, Catalog# A408) (human) (UniProt P00751)
# UniProt P00751, sequence (P00751 26-764): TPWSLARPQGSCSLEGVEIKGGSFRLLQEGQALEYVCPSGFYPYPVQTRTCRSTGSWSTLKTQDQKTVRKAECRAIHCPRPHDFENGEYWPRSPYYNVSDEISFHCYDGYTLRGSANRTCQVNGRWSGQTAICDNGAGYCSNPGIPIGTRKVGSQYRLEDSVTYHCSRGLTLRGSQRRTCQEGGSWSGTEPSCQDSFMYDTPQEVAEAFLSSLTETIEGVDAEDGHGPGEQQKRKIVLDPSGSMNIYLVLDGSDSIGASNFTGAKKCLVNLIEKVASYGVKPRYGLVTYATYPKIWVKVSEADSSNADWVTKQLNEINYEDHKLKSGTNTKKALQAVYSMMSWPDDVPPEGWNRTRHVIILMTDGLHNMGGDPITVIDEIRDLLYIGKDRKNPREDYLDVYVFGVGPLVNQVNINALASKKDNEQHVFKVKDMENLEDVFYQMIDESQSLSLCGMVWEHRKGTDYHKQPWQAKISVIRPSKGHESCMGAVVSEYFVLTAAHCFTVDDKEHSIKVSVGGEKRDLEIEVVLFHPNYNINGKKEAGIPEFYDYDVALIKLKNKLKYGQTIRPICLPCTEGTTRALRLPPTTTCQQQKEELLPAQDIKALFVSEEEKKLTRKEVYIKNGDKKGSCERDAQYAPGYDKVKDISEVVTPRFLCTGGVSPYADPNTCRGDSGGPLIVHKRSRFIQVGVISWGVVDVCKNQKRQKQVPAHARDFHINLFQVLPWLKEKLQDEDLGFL
# UniProt P00746, sequence (P00746 26-253 limits assumed): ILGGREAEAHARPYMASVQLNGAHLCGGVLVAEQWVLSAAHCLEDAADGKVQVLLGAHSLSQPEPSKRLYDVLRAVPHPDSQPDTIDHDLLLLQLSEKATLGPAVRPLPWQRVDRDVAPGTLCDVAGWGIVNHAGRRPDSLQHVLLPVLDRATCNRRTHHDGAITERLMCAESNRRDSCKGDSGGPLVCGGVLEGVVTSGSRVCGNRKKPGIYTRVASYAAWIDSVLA
# UniProt P04186, sequence (P04186 23-761): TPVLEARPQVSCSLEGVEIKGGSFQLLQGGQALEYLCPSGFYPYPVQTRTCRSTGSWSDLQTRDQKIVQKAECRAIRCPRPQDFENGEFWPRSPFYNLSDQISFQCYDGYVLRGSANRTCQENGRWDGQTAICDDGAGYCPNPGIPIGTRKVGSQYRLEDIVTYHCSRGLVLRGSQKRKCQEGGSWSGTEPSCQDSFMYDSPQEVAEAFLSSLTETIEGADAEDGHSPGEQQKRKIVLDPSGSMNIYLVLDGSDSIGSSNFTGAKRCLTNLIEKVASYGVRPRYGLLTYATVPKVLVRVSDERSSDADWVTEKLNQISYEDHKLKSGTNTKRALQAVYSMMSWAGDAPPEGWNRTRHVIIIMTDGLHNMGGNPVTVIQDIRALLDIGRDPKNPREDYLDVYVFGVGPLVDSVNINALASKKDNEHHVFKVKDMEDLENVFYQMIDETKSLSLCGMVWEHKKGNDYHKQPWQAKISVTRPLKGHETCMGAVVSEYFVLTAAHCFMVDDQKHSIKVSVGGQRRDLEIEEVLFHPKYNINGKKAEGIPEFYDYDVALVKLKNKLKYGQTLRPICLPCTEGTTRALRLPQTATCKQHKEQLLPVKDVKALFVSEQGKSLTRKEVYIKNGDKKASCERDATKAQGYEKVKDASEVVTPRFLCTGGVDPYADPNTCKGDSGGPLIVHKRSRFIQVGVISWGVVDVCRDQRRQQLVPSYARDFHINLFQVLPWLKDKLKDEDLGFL
substance,measurement,setting,value
"isotype matched mouse control IgG (eBioscience, Catalog# 14-4732) (antibody)",hemolysis OD 405 nm; Control IgG 5 ng + Purified hfB protein 0.5 ug,[1],0.428 OD 405 nm
same,hemolysis OD 405 nm; Control IgG 10 ng + Purified hfB protein 0.5 ug,[1],0.361 OD 405 nm
same,hemolysis OD 405 nm; Control IgG 20 ng + Purified hfB protein 0.5 ug,[1],0.441 OD 405 nm
same,hemolysis OD 405 nm; Control IgG 30 ng + Purified hfB protein 0.5 ug,[1],0.392 OD 405 nm
same,hemolysis OD 405 nm; Control IgG 40 ng + Purified hfB protein 0.5 ug,[1],0.426 OD 405 nm
same,hemolysis OD 405 nm; Control IgG 50 ng + Purified hfB protein 0.5 ug,[1],0.43 OD 405 nm
same,hemolysis OD 405 nm; Control IgG 60 ng + Purified hfB protein 0.5 ug,[1],0.416 OD 405 nm
same,hemolysis OD 405 nm; Control IgG 70 ng + Purified hfB protein 0.5 ug,[1],0.395 OD 405 nm
same,hemolysis OD 405 nm; Control IgG 80 ng + Purified hfB protein 0.5 ug,[1],0.387 OD 405 nm
same,hemolysis OD 405 nm; Control IgG 90 ng + Purified hfB protein 0.5 ug,[1],0.347 OD 405 nm
same,hemolysis OD 405 nm; Control IgG 100 ng + Purified hfB protein 0.5 ug,[1],0.397 OD 405 nm
same,hemolysis OD 405 nm; Control IgG 150 ng + Purified hfB protein 0.5 ug,[1],0.426 OD 405 nm
same,hemolysis OD 405 nm; Control IgG 200 ng + Purified hfB protein 0.5 ug,[1],0.347 OD 405 nm
same,hemolysis OD 405 nm; Control IgG 400 ng + Purified hfB protein 0.5 ug,[1],0.506 OD 405 nm
same,hemolysis OD 405 nm; Control IgG 800 ng + Purified hfB protein 0.5 ug,[1],0.538 OD 405 nm
same,hemolysis OD 405 nm; Control IgG 1600 ng + Purified hfB protein 0.5 ug,[1],0.618 OD 405 nm
same,hemolysis OD 405 nm; Control IgG 2400 ng + Purified hfB protein 0.5 ug,[1],0.588 OD 405 nm
"monoclonal anti-human factor D antibody (Affinity Bioreagents, Catalog# GAU008-01-02)",hemolysis OD 405 nm; Anti-hfD mAb 5 ng + Purified hfB protein 0.5 ug,[1],0.373 OD 405 nm
same,hemolysis OD 405 nm; Anti-hfD mAb 10 ng + Purified hfB protein 0.5 ug,[1],0.432 OD 405 nm
same,hemolysis OD 405 nm; Anti-hfD mAb 20 ng + Purified hfB protein 0.5 ug,[1],0.369 OD 405 nm
same,hemolysis OD 405 nm; Anti-hfD mAb 30 ng + Purified hfB protein 0.5 ug,[1],0.235 OD 405 nm
same,hemolysis OD 405 nm; Anti-hfD mAb 40 ng + Purified hfB protein 0.5 ug,[1],0.227 OD 405 nm
same,hemolysis OD 405 nm; Anti-hfD mAb 50 ng + Purified hfB protein 0.5 ug,[1],0.165 OD 405 nm
same,hemolysis OD 405 nm; Anti-hfD mAb 60 ng + Purified hfB protein 0.5 ug,[1],0.126 OD 405 nm
same,hemolysis OD 405 nm; Anti-hfD mAb 70 ng + Purified hfB protein 0.5 ug,[1],0.103 OD 405 nm
same,hemolysis OD 405 nm; Anti-hfD mAb 80 ng + Purified hfB protein 0.5 ug,[1],0.078 OD 405 nm
same,hemolysis OD 405 nm; Anti-hfD mAb 90 ng + Purified hfB protein 0.5 ug,[1],0.058 OD 405 nm
same,hemolysis OD 405 nm; Anti-hfD mAb 100 ng + Purified hfB protein 0.5 ug,[1],0.061 OD 405 nm
same,hemolysis OD 405 nm; Anti-hfD mAb 150 ng + Purified hfB protein 0.5 ug,[1],0.035 OD 405 nm
same,hemolysis OD 405 nm; Anti-hfD mAb 200 ng + Purified hfB protein 0.5 ug,[1],0.029 OD 405 nm
same,hemolysis OD 405 nm; Anti-hfD mAb 400 ng + Purified hfB protein 0.5 ug,[1],0.022 OD 405 nm
same,hemolysis OD 405 nm; Anti-hfD mAb 800 ng + Purified hfB protein 0.5 ug,[1],0.015 OD 405 nm
same,hemolysis OD 405 nm; Anti-hfD mAb 1600 ng + Purified hfB protein 0.5 ug,[1],0.014 OD 405 nm
same,hemolysis OD 405 nm; Anti-hfD mAb 2400 ng + Purified hfB protein 0.5 ug,[1],0.049 OD 405 nm
"mouse monoclonal antibody against human factor B (Quidel, Catalog# A227)",hemolysis OD 405 nm; Anti hfB mAb 0.4 ug + Mouse serum 50 ul (1:6 Diluted),[2],0.074 OD 405 nm
same,hemolysis OD 405 nm; Anti hfB mAb 0.4 ug + Purified hfB Protein 0.5 ug,[3],0.051 OD 405 nm
same,hemolysis OD 405 nm; Anti hfB mAb 0.8 ug + Purified hfB Protein 0.5 ug,[3],0 OD 405 nm
